Biological target: T1, ADP-1 polypeptide (Tat RNA-binding region) (HIV-1, UniProt P04608 37-72)
T1 chain: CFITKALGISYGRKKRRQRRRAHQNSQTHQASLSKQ
Test: EMSA; no helicate; EMSA: 50 mM Tris-HCl pH 8.0, 50 mM KCl, 100 mM DTT, 0.05% Triton X-100, 10 min on ice; 15% PAA gel, 0.5x TB, 5 C
Conditions: label: 5'-32P; hairpin with 3-nt UCU bulge

Q: Does GGCCAGAUCUGAGCCUGGGAGCUCUCUGGCC (structured_RNA) [TAR RNA] bind?
A: Result: binds
